Assay results as given in patent publication US20230029835A1 (KEYMED BIOSCIENCES, published 2023).
Substitutions are numbered along the chain they refer to.

T1: Cynomolgus macaques TSLP recombinant protein (Cynomolgus macaques, UniProt Q969D9 29-159 (human entry), limits assumed, biotinylated in the blocking assays (sites not given))
T1 construct: also called cyTSLP; biotinylated Cynomolgus macaques TSLP protein
T1 chain: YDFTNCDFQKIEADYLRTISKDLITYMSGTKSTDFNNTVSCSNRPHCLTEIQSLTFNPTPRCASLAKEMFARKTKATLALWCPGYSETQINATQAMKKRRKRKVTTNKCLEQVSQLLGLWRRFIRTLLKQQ

B1: 80D12 chimeric antibody (antibody, V domains shown)
VH: QVQLKQSGPQLVRPGASVKISCKASGYSFTSYWMHWVKQRPGQGLEWIGMIDPSDSETTLNQKFKDKATLTVDKSSTTAYMQLSSPTSEDSAVYYCARSLDGYYDYWGQGTTLTVSS
VL: DVQMIQSPASLSASVGETVTITCRTSENIYSYLAWYQQKQGKSPQLLVYFAKTLTDGVPSRFSGSGSGTQFSLKINSLQPEDFGSYYCQHHYGTPWTFGGGTKLEIK
B2: 39G5-H8 chimeric antibody (antibody, V domains shown)
VH: B1 VH with K5L, T30I, M34I, M50I, E57D, T59S, M81I
VL: B1 VL with V2I, I5T, T25A, F50N, K52R, T55P, D56E, S85I, G93T
B3: Ab12 (antibody, V domains shown)
VH: QVQLVQSGAEVKKPGSSVKVSCKASGYTFTDYWMHWVRQAPGQGLEWMGTIDNSDSDTSLNQKFQGRVTITADESSSTAYMELSSLRSEDTAVYYCARSLDGYYDYWGQGTLVTVSS
VL: DIQMTQSPSSLSASVGDRVTITCRASENIYSYLAWYQQKPGKAPKLLIYNARTLPEGVPSRFSGSGSGTDFTLTISSLQPEDFATYYCQHHYTTPWTFGQGTKVEIK
notes: Humanized; also called h39G5VHv12/h39G5VKv1
B4: Ab14 (antibody, V domains shown)
VH: EVQLVQSGAEVKKPGESLKISCKASGYTFTDYWMHWVRQMPGKGLEWMGTIDNSDSDTSLNQSFQGHVTISADKSISTAYLQWSSLKASDTAMYYCARSLDGYYDYWGQGTLVTVSS
VL: B3 VL
notes: Humanized; also called h39G5VHv14/h39G5VKv1

Key:
[1] = biological target: T2, human TSLP recombinant protein (human, UniProt Q969D9 29-159, biotinylated in the blocking and cell-binding assays (sites not given)); test: cell-based or functional assay
[2] = biological target: T2, human TSLP recombinant protein; test: cell-based or functional assay; remark: listed apart in the source
[3] = biological target: T2, human TSLP recombinant protein; test: ELISA on coated human TSLP
Description: (§1) The plate was washed three times with PBS and blocked by adding 200 μL/well of PBS containing 2% skim milk for 1 hour. […] After washing with PBST and PBS three times, respectively, 100 μL of TMB substrate was added to each well for color development at 37° C. for 10 minutes, the reaction was terminated with 50 μL of 2M sulfuric acid solution per well, and the absorbance was read at a wavelength of 450 nm.

[4] = biological target: T1, Cynomolgus macaques TSLP recombinant …; test: ELISA on coated cynomolgus TSLP;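 on result: Read-out was TMB colorimetric signal measured as absorbance at 450 nm after 10 min development at 37 °C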
Description: as §1

[5] = biological target: T2, human TSLP recombinant protein; test: competition ELISA, biotin-human TSLP to coated human TSLPR-Fc
Description: Human TSLPR recombinant protein was coated onto a 96-well microtiter plate at 1 μg/mL in carbonate buffer overnight at 4° C. The plate was washed three times with PBS and blocked by adding 200 μL/well of PBS containing 2% skim milk for 1 hour. […] The 96-well plate was washed three times with PBS, and 100 μL of the incubated mixture was added to each well and incubated for 1 hour at room temperature. After washing with PBST and PBS three times, respectively, 100 μL of SA-HRP was added to each well and incubated at room temperature for 30 minutes in the dark. After washing with PBST and PBS three times, respectively, 100 μL of TMB substrate was added to well for color development at 37° C. for 10 minutes, the reaction was terminated with 50 μL of 2M sulfuric acid solution per well, and the absorbance was read at a wavelength of 450 nm.

[6] = biological target: T2, human TSLP recombinant protein; test: SPR BIAcore T200, antibody captured on Protein A, human TSLP injected
Description: After each injection cycle, the Protein A chip surface was regenerated with regeneration buffer 10 mM glycine (pH 2.0) at a flow rate of 30 μL/min.
The association rate constant (ka) and dissociation rate constant (kd) and equilibrium dissociation constant KD were analyzed by fitting the resulting data to a Langmuir 1:1 kinetics theoretical model using BIAevaluation software.

[7] = biological target: T1, Cynomolgus macaques TSLP recombinant …; test: competition ELISA, biotin-cynomolgus TSLP to coated cynomolgus TSLPR-Fc
Description: Cynomolgus macaques TSLPR recombinant protein was coated onto a 96-well microtiter plate at 1 μg/mL in carbonate buffer overnight at 4° C. The plate was washed three times with PBS and blocked by adding 200 μL/well of PBS containing 2% skim milk for 1 hour. […] The 96-well plate was washed three times with PBS, and 100 μL of the incubated mixture was added to each well and incubated for 1 hour at room temperature. After washing with PBST and PBS three times, respectively, 100 μL of SA-HRP was added to each well and incubated at room temperature for 30 minutes in the dark. After washing with PBST and PBS three times, respectively, 100 μL of TMB substrate was added to well for color development at 37° C. for 10 minutes, the reaction was terminated with 50 μL of 2M sulfuric acid solution per well, and the absorbance was read at a wavelength of 450 nm.

[8] = biological target: T1, Cynomolgus macaques TSLP recombinant …; test: ELISA on coated cynomolgus TSLP;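 on result: Read-out was TMB colorimetric signal measured as absorbance at 450 nm after 10 min development at 37 °C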
Description: as §1

[9] = biological target: T2, human TSLP recombinant protein; test: ELISA, human TSLP coated at 1 ug/mL, anti-human IgG Fc-HRP, A450
Description: as §1

Binder	Inhibition IC50 of cell proliferation [1]	Inhibition IC50 of STAT5 reporter gene [2]	EC50 [3]	EC50 [4]	IC50 [5]	Kd [6]	koff [6]	kon [6]	IC50 [7]	binding result [8]	binding result [9]
B1	44.7 nM	3.84 nM	0.21 nM	0.35 nM	2.44 nM	0.00596 nM	2.84e-05 s⁻¹	4.77e+06 M⁻¹ s⁻¹	0.63 nM	–	–
B2	39.1 nM	3.33 nM	0.15 nM	0.54 nM	3.42 nM	0.0095 nM	4.6e-05 s⁻¹	4.84e+06 M⁻¹ s⁻¹	1.74 nM	–	–
B3	–	–	–	–	–	–	–	–	–	binds	binds
B4	–	–	–	–	–	–	–	–	–	no binding	binds
